The target in the test is T1, complement C5 (human, UniProt P01031 19-673; P01031 678-1676).
T1 construct: also called human C5; source: endogenous, human serum
Nature of the test: cryo-EM structure. As to conditions: both partners purified.

T1 sequence (P01031 19-673, chain 1 of 2): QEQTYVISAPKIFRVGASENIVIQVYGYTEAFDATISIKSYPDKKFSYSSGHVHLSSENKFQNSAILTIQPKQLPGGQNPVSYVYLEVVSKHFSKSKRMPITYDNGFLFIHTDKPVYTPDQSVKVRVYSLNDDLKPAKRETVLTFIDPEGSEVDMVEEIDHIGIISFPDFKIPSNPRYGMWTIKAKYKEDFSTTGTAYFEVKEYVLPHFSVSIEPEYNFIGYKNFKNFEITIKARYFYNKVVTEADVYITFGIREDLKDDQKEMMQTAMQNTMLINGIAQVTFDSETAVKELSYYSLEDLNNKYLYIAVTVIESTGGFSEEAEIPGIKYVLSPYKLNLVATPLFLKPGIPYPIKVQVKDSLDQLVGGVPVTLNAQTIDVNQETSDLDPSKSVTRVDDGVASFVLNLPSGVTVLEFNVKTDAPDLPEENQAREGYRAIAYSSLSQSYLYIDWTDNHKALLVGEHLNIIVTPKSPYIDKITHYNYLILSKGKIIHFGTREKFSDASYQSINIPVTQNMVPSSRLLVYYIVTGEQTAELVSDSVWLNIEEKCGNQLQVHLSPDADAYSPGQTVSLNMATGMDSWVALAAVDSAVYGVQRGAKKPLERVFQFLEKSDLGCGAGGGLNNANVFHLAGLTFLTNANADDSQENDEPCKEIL
T1 sequence (P01031 678-1676, chain 2 of 2): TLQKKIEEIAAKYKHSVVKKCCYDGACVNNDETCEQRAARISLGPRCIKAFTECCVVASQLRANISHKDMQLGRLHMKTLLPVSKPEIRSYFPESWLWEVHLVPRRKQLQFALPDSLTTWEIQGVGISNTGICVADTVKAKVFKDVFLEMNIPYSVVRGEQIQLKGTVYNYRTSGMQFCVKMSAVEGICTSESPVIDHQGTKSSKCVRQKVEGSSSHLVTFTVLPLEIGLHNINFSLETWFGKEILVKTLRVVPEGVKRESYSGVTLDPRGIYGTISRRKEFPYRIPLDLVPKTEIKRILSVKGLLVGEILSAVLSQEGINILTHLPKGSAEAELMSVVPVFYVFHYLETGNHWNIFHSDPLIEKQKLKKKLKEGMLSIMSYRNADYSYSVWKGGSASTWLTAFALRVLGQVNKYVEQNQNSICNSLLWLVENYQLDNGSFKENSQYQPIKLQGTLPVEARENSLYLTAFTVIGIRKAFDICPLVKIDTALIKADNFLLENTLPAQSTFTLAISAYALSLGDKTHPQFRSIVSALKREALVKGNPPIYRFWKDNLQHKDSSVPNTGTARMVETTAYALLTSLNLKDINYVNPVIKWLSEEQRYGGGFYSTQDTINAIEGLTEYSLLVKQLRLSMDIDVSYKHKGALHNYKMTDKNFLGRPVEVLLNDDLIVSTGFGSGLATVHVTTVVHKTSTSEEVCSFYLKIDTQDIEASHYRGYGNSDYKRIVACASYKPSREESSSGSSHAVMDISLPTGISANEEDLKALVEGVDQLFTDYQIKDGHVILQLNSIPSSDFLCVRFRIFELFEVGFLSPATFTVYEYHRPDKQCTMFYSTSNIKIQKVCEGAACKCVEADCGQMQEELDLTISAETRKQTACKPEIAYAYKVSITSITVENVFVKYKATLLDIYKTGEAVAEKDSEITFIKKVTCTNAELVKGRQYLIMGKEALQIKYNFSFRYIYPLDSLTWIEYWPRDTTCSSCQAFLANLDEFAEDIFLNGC

B1: OmCI (natural protein)
chain: DSESDCTGSEPVDAFQAFSEGKEAYVLVRSTDPKARDCLKGEPAGEKQDNTLPVMMTFKNGTDWASTDWTFTLDGAKVTATLGNLTQNREVVYDSQSHHCHVDKVEKEVPDYEMWMLDAGGLEVEVECCRQKLEELASGRNQMYPHLKDC
notes: also called Coversin; His-tagged OmCI
Regarding B1, the binding result is listed as “binds”.

The values above are taken from publication doi:10.1101/647354 (bioRxiv, 2019).
